Source: patent US20140094416A1, “SPARC ANGIOGENIC DOMAIN AND METHODS OF USE” (Abraxis BioScience, LLC, priority 2009, published 2014)

Columns and labels:
[1] = system: PC3 model; assay: Tumor volume in mice, PC3 model; assay type: in vivo
Method: Tumor volume was measured in mice being treated with Abraxane alone (15 mg/kg administered daily for five days), Abraxane and Sutent (the Sutent administered at 30 mg/kg daily for 8 weeks), Abraxane and exogenous SPARC (the SPARC at […] administered twice a week for eight weeks), and finally, Abraxane, Sutent and SPARC together.
FIG. 1 depicts a graph plotting tumor volume (mm^3) against time (days) for these test conditions.

[2] = system: HUVEC; assay: HUVEC sprout formation bead assay; assay type: cell-based; details: addition of rhSPARC
Method: (§1) Recombinant human SPARC and genetically engineered variants were expressed and purified using HEK 293 cells maintained in hollow fiber bio-reactors. The angiogenic activity of rhSPARC and its variants was evaluated using a HUVEC tube formation assay and a HUVEC sprout formation bead assay.
(§2) In the HUVEC tube formation assay, rhSPARC was pro-angiogenic at 10 μg/mL and anti-angiogenic at 100 μg/mL. […] Additional rhSPARC variants with deletions and single/double amino acid substitutions tested in these assays included: Q3 deletion (BIO2), an inversion of the putative angiogenic domain (BIO5), a double K>Q substitution in the proposed angiogenic domain (BIO11), the genetic ablation of the putative catephsin K recognition sites (BIO8), and a proteolytic degradation product of rhSPARC. End terminal amino acid analysis indicated the angiogenic activity is localized to SEQ ID NO: 1.

[3] = system: HUVEC; assay: HUVEC (3-D) tube formation assay; assay type: cell-based
Method: as §1, §2
FIG. 4 depicts the results of a HUVEC 3-D tube formation assay conducted with wild type SPARC and SPARC-D. The angiogenic behavior of wild type SPARC, as described in the previous example, can be seen in the graph; the angiogenic behavior increases as the concentration approaches 10 ug/ml and drops off as it approaches 100 ug/ml.

Molecule | efficacy of the SPARC/Abraxane combination (tumor volume) ([1]; Sutent 30 mg/kg daily for 8 weeks added to SPARC and Abraxane) | decrease in tumor volume ([1]; Sutent 30 mg/kg daily for 8 weeks with Abraxane, versus Abraxane alone) | blood vessel maturity in sprout formation [2] | tumor volume ([1]; exogenous SPARC 0.2 mg/ms twice a week for eight weeks with Abraxane, versus Abraxane alone) | effect on synergy of Abraxane and Sutent (tumor volume) ([1]; exogenous SPARC along with Abraxane and Sutent) | angiogenic activity ([3]; 10 μg/mL, listed as rhSPARC) | angiogenic activity ([3]; 10 μg/mL, listed as wild type SPARC) | angiogenic activity ([3]; 100 μg/mL, listed as rhSPARC) | angiogenic activity ([3]; 100 μg/mL, listed as wild type SPARC)
CCN(CC)CCNC(=O)c1c(C)[nH]c(/C=C2\C(=O)Nc3ccc(F)cc32)c1C [Sutent®, reference compound] | markedly improved | far greater decrease in tumor volume |  |  |  |  |  |  | 
SPARC: Secreted Protein, Acidic, Rich in Cysteines; recombinant human SPARC expressed and purified using HEK 293 cells (protein, listed as Homo sapiens) APQQEALPDETEVVEETVAEVTEVSVGANPVQVEVGEFDDGAEETEEEVVAENPCQNHHCKHGKVCELDENNTPMCVCQDPTSCPAPIGEFEKVCSNDNKTFDSSCHFFATKCTLEGTKKGHKLHLDYIGPCKYIPPCLDSELTEFPLRMRDWLKNVLVTLYERDEDNNLLTEKQKLRVKKIHENEKRLEAGDHPVELLARDFEKNYNMYIFPVHWQFGQLDQHPIDGYLSH |  |  | more mature blood vessels well supported by pericytes | tumor volume is slightly greater | negates some of the synergistic affect | pro-angiogenic | increases | anti-angiogenic | drops off
